Patent US20110152345A1, “EBI3, DLX5, NPTX1 AND CDKN3 FOR TARGET GENES OF LUNG CANCER THERAPY AND DIAGNOSIS” (Oncotherapy Science, Inc., priority 2007, published 2011)

Legend:
CDKN3 and EF-1delta = target: T1, CDKN3 and EF-1delta (Homo sapiens, UniProt Q16667); assay: Immunoprecipitation of endogenous CDKN3 and EF-1delta complex in peptide-treated LC319 cells; format: cell-based; details: peptide added to culture medium
T1 construct: between endogenous CDKN3 and EF-1delta proteins in LC319 cells; endogenous in cells; host or cells: LC319 (human lung adenocarcinoma cell line)
T1 sequence (Q16667 1-212): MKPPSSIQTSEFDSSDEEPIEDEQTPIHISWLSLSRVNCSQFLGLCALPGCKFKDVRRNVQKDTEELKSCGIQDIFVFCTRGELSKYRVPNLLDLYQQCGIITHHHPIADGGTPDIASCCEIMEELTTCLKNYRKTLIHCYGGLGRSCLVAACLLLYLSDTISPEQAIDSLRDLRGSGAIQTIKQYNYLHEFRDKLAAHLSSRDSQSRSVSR
Text: FIG. 24: Identifies the CDKN3-binding region in EF-1delta. Part A presents a schematic drawing of five cell permeable peptides linked covalently at its NH2-terminus to a membrane transducing 11 poly-arginine sequence. The sequence of leucine zipper motif in EF-1delta and five cell permeable peptides derived from EF-1delta are shown. Part B presents the viability of LC319 cells evaluated by MTT assay in response to five cell permeable peptides (upper panel). Reduction of the complex formation detected by immunoprecipitation between endogenous CDKN3 and EF-1delta proteins in LC319 cells that were treated with the 11R-EF-1delta90-108 peptides (lower panel).
Then, to investigate the functional significance of interaction between CDKN3 and EF-1delta for growth or survival of lung-cancer cells, bioactive cell-permeable peptides expected to inhibit the binding of these two proteins were developed. Next 5 different peptides of 19 amino acid sequence that included in codons 73-160 of EF-1delta were synthesized (FIG. 24A). These peptides were covalently linked at NH2-terminalus to a membrane transducing 11 arginine-residues (11R).

LC319 cells = assay: MTT assay of LC319 cells treated with cell-permeable 11R-EF-1delta peptides; format: cell-based, human; details: peptide 2.5, 5.0 and 7.5 micro M for 5 days
Text: 19-amino acid peptide sequence corresponding to a part of EF-1delta protein that contained possible binding sites of CDKN3 were covalently linked at its NH2-terminus to a membrane transducing 11 poly-arginine sequence (11R; refs. Futaki et al., Hayama et al., 2006, 2007). Five cell permeable peptides were synthesized: 11R-EF-1delta73-91, RRRRRRRRRRR-GGG-TSGDHGELVVRIASLEVEN; 11R-EF-1delta90-108, RRRRRRRRRRR-GGG-ENQSLRGVVQELQQAISKL; 11R-EF-1delta108-126, RRRRRRRRRRR-GGG-LEARLNVLEKSSPGHRATA; 11R-EF-1delta125-143, RRRRRRRRRRR-GGG-TAPQTQHVSPMRQVEPPAK; 11R-EF-1delta142-160, RRRRRRRRRRR-GGG-AKKPATPAEDDEDDDIDLF. Peptides were purified by preparative reverse-phase high-pressure liquid chromatography. LC319 cells were incubated with the 11R peptides at the concentration of 2.5, 5.0 and 7.5 micro M for 5 days. The medium was changed at every 48 hours at the appropriate concentrations of each peptide and the viability of cells was evaluated by MTT assay at 5 days after the treatment. 12. Immunoprecipitation and MALDI-TOF-MS mapping of CDKN3-Associated Proteins.

RRRRRRRRRRR-GGG-ENQSLRGVVQELQQAISKL (RRRRRRRRRRRGGGENQSLRGVVQELQQAISKL) [11R-EF-1delta90-108]
complex formation between endogenous CDKN3 and EF-1delta (CDKN3 and EF-1delta): reduced complex formation
cell viability (MTT assay) (LC319 cells): significant decreases
